Data taken from paper PMC8658920.

Target: heterochromatin protein HP1γ (UniProt Q13185)
Assay: proximity labelling; PUB (proximity utilizing biotinylation): BAP-HP1γ co-expressed with BirA-HP1γ or, in a separate dish, with BirA-Tap54α; 4 h biotinylation time; MRM LC-MS/MS on Agilent nanoHPLC-Chip ion trap, Skyline; ratio of biotinylation level, experiment versus control

Chain of heterochromatin protein HP1γ, Q13185 1-183 (natural protein; other documents disagree on this pair) (Q13185 whole entry): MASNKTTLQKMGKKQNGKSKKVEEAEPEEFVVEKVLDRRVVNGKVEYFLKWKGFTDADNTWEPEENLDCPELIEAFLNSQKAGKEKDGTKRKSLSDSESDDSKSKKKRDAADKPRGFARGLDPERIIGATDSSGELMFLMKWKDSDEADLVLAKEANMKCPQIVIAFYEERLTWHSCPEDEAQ

ratio of biotinylation level, experiment versus control BAP-HP1γ + BirA-Tap54α (4 h biotinylation time): 32
Substance: heterochromatin protein HP1γ, Q13185 1-183 (natural protein; other documents disagree on this pair)
